This note sets out measurements from publication PMC7021315.

Experiment [1] has as its target recombinant Zika virus E protein (soluble E, lacking the stem-anchor region) (Zika virus). In words: rate zonal ultracentrifugation in sucrose gradients; 3-5 ug E protein on sucrose gradients, 20 h at 38,000 rpm, 15°C, Beckman SW40 rotor; fractions quantified by ELISA (Strep-Tactin capture, mab A1 detection).
For experiment [2] the target is unchanged. In words: SEC; Superdex 200 Increase 3.2/300 column, ÄKTA FPLC, TAN buffer pH 8.0. (In general: Size exclusion chromatography separates by hydrodynamic size, large species first.)

By stoichiometry N is commonly meant the number of molecules, sites or subunits per partner or assembly. With “recombinant Zika virus E protein (soluble E, lacking the stem-anchor region) (domain or fragment)”, the stoichiometry N in experiment [1] and in experiment [2] was 2 each time.
